Read-outs that look alike come from different tables or passages of the source. Where no end group is shown, it is not given here.
T1: human Y1 receptor (human, UniProt P25929 1-384)
T1 construct: Transiently expressed in COS-7 cells; membranes used; also called cloned human Y1 receptor (Larhammar et al., 1992)
T1 sequence: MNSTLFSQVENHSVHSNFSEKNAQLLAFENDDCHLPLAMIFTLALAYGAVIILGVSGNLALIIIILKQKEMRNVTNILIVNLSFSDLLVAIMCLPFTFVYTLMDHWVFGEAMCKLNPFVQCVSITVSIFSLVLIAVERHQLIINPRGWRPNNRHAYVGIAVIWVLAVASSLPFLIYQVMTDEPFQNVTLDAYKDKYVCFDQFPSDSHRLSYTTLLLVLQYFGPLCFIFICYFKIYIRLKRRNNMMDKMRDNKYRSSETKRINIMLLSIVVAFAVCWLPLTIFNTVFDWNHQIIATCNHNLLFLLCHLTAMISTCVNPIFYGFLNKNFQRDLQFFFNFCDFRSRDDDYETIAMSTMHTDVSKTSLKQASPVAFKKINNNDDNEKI


Key:
[1] = target: T2, human Y4 receptor (human, UniProt P0DQD5 1-375); test: 125I-PYY displacement, COS-7 membranes
T2 construct: also called hp25a; hp25a receptor
Procedure: (§1) Data are representative of at least two independent experiments, with each point measured once or in duplicate.
(§2) Radioligand Binding to Membrane Suspensions: Membrane suspensions were diluted in binding buffer supplemented with 0.1% bovine serum albumin and 0.1% bacitracin to yield an optimal membrane protein concentration: ~0.02 mg/ml for human Y1 receptors, ~0.015 mg/ml for hp25a receptors, and ~0.25 mg/ml for SK-N-Be(2). […] Incubations were terminated by filtration over Whatman GF/C filters (pre-coated with 0.5% polyethyleneimine and air-dried before use). […] Binding data were analyzed using nonlinear regression and statistical techniques available in the GraphPAD InPlot package (San Diego, Calif.).

[2] = target: T2, human Y4 receptor; test: cell-based or functional assay
[3] = target: T1, human Y1 receptor; test: 125I-PYY displacement, COS-7 membranes
Procedure: as §2, with “Calif.). […] Whatman GF/C filters were from Brandel (Gaithersburg, Md.). Bio-Rad Reagent was from Bio-Rad (Hercules, Calif.). Bovine serum albumin and bacitracin were from Sigma (St. Louis, Mo.). All other materials were reagent grade.” for “Calif.).”

[4] = target: T2, human Y4 receptor; test: 125I-PYY displacement, COS-7 membranes; remark: listed apart in the source
Procedure: as §2, with “Calif.). […] Whatman GF/C filters were from Brandel (Gaithersburg, Md.). Bio-Rad Reagent was from Bio-Rad (Hercules, Calif.). Bovine serum albumin and bacitracin were from Sigma (St. Louis, Mo.). All other materials were reagent grade.” for “Calif.).”

[5] = target: T2, human Y4 receptor; test: 125I-PYY displacement, COS-7 membranes; remark: listed apart in the source
[6] = target: T3, rat Y4 receptor (rat, UniProt Q63447 1-375); test: 125I-PYY displacement, COS-7 membranes
T3 construct: Full-length receptor (375 aa) transiently expressed in COS-7 cells; membranes used; also called rs16b; rat Y4 homolog

[7] = target: T1, human Y1 receptor; test: 125I-PYY displacement, COS-7 membranes; remark: listed apart in the source
Procedure: as §1, §2

[8] = target: T2, human Y4 receptor; test: 125I-PYY displacement, COS-7 membranes (as in Table 3)
Procedure: as §2, with “Calif.). […] Whatman GF/C filters were from Brandel (Gaithersburg, Md.). Bio-Rad Reagent was from Bio-Rad (Hercules, Calif.). Bovine serum albumin and bacitracin were from Sigma (St. Louis, Mo.). All other materials were reagent grade.” for “Calif.).”

[9] = target: T2, human Y4 receptor; test: 125I-PYY displacement, COS-7 membranes; remark: listed apart in the source

T3 sequence (Q63447 whole entry R262P): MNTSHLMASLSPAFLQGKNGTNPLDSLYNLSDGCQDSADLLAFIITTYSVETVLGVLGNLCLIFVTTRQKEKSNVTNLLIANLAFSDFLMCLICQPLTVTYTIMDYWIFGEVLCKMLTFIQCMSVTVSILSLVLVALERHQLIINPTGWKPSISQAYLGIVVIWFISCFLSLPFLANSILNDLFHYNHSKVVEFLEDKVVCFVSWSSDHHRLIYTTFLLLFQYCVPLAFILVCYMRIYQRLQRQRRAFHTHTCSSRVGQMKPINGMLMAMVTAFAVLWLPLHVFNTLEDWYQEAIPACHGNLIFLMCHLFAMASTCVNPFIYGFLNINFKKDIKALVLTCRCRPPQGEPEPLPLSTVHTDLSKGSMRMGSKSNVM
T2 sequence (P0DQD5 whole entry): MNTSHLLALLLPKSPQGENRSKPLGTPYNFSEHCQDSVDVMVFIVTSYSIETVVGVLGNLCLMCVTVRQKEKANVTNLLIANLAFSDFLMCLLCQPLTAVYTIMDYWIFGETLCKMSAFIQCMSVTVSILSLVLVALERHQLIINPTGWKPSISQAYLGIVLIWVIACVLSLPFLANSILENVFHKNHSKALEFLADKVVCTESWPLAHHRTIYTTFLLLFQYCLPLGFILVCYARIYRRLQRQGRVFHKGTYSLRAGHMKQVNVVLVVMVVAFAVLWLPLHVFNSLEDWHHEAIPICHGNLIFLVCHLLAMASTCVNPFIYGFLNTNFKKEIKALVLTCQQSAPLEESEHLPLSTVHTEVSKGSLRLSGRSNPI

Binder	EC50, inhibition of forskolin-stimulated cAMP accumulation, LM(tk-) cells [2] [nM]	Ki [4] [nM]	Ki [6] [nM]	Ki [8] [nM]	also measured
SPEELSRYYASLRHYLNLVTRQRY-NH2 (peptide, UniProt P68005 13-36, looked up, range 13-36; also called PYY13-36, porcine) [porcine PYY13-36]					Ki [1]: 47 nM
PLEPVYPGDNATPEQMAQYAADLRRYINMLTRPRY-NH2 (peptide, UniProt P01298 31-65, looked up) [PP2-36, human]	0.08				
APLEPMYPGDYATHEQRAQYETQLRRYINTLTRPRY-NH2 (peptide, UniProt P06303 30-65, looked up, mature; also called rat PP) [PP, rat]		0.18	0.2		Ki [3]: 460 nM; Ki [5]: 0.18 nM
APLEPVYPGDNATPEQMAQYAADLRRYINMLTRPRY-NH2 (peptide, UniProt P01298 30-65, looked up, mature; also called human PP; PP, human) [human pancreatic polypeptide]	0.09		0.12		Ki [9]: 0.02 nM
APLEPEYPGDNATPEQMAQYAAELRRYINMLTRPRY-NH2 (peptide, UniProt P01302 30-65, looked up, mature; also called bovine PP) [PP, bovine]		0.05	0.15		Ki [3]: 240 nM; Ki [5]: 0.05 nM
human neuropeptide Y (C-terminal amide) peptide: not shown	20				

More lines, main results first:

EC50, inhibition of forskolin-stimulated cAMP accumulation, LM(tk-) cells [2] [nM]	Ki [4] [nM]	Ki [6] [nM]	Ki [8] [nM]	Binder	also measured
47				human peptide YY (C-terminal amide, mature; also called human PYY; PYY, human) peptide: not shown	Ki [3]: 0.19 nM; Ki [7]: 0.085 nM; Ki [1]: 0.62 nM
89000	350	20	> 10000	LTRPRY-NH2 (peptide, UniProt P01298 60-65, looked up, range 60-65; also called human PP31-36) [PP31-36, human]	Ki [5]: 350 nM
3500			> 88	YINMLTRPRY-NH2 (peptide, UniProt P01298 56-65, looked up, range 27-36) [PP27-36, human]	
	4000			FMRF-NH2 (Tetrapeptide invertebrate neurotransmitter; also called FMRF-amide; FMRFamide) [Phe-Met-Arg-Phe-Amide]	
580	39		39	TPEQMAQYAADLRRYINMLTRPRY-NH2 (peptide, UniProt P01298 42-65, looked up, range 13-36) [PP13-36, human]	
0.27	0.09		0.09	APLEPVYPGDNATPEQMAQYAADLRRYINMITRQRY-NH2 (peptide, UniProt P01298 30-65, looked up, mature) [[Ile^31, Gln^34]PP, human]	

Source: patent publication US6913892 (H LUNDBECK A S, dated 2005)
